Reference: the supplement of paper PMC9170038

What was measured:
[1] = test system: K4 kissing-loop RNA reporter; assay: apparent KD of K4 kissing-loop reporter; higher = weaker reporter binding; conditions: Eterna round: R107;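 note: bound reporter read as fluorescence of individual clusters on recovered sequencing chips by microscopy, with normalized cluster intensities fitted with a binding model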
Experimental: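 RNA-MaP round R107: designed RNA switches with theophylline, tryptophan, arginine or FMN aptamers are transcribed on-chip within common flanks. They are titrated with a labelled K4 kissing-loop RNA reporter in RNA-MaP buffer (100 mM Tris pH 7.5, 80 mM KCl, 4 mM MgCl2), without ligand or with the indicated ligand. Median apparent KD per design.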

MS2 coat protein = assay: apparent KD of MS2 coat protein; designed switch direction (-1 OFF switch, 1 ON switch): -1; higher = weaker reporter binding
Procedure, shortened: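 Normalised cluster fluorescence was curve-fitted, and each design's median over clusters is its apparent KD. Before this, SNAP-549-labelled MS2 coat protein was titrated from 0.7 or 1.5 nM, doubling to 3 µM, over RNA switches transcribed on Illumina chips by stalled E. coli RNA polymerase. Titrations had no input, 200 uM small-molecule ligand, or an oligonucleotide input, and steps lasted 0.8–1.5 h (lowest) to 10–20 min (highest).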

[2] = input ligand: theophylline 20 uM
[3] = input ligand: tryptophan 2.4 mM
[4] = Eterna round: R95, input ligand: microRNA oligo, concentration not stated
[5] = Eterna round: R95, input ligand: FMN 200 uM
[6] = Eterna round: R95, input ligand: none

Sequence | apparent KD of K4 kissing-loop reporter ([1]; input ligand: FMN 200 uM) [nM] | apparent KD of K4 kissing-loop reporter ([1]; input ligand: arginine 13.2 mM) [nM] | apparent KD of K4 kissing-loop reporter ([1]; input ligand: none) [nM] | apparent KD of K4 kissing-loop reporter [1, 2] [nM] | apparent KD of K4 kissing-loop reporter [1, 3] [nM] | apparent KD of MS2 coat protein (MS2 coat protein; [4]) [nM] | apparent KD of MS2 coat protein (MS2 coat protein; input ligand: FMN 200 uM) [nM] | apparent KD of MS2 coat protein (MS2 coat protein; input ligand: microRNA oligo, concentration not stated) [nM] | apparent KD of MS2 coat protein (MS2 coat protein; input ligand: none) [nM] | apparent KD of MS2 coat protein (MS2 coat protein; [5]) [nM] | apparent KD of MS2 coat protein (MS2 coat protein; [6]) [nM]
AGAUAGGGCUGAAGGAGCGUCGGAGAAGAGAAGAAGAAAUCCAGUGAUGUUGGAUAAAUCCGACAGGUAGGUCGCAGUUUUAUGA [hbob_SS_Arginine_B_2t137] | 122 | 135 | 115 | 179 | 119 |  |  |  |  |  | 
GCGGGCCAGACGGCCGCCACUCCGGGCAGUGAUGUUGCGAAACUUCUACUAGAGUGAUGUUCUACGAGGACCGGGUCGGAACGCG [Exclusion Tryptophan B Gf 13] | 789 | 703 | 951 | 1000 | 578 |  |  |  |  |  | 
AAUGAUGAUUGACACAUUUACUAAAAGGAAGGAGCGGCGAUGUGGCCAGGUAGGUCGCCUUUUAGCAGUGAUGUUGCUAUAUGUU [JR_Nu_ExcArginiA_Sub026] | 84.5 | 108 | 111 | 152 | 70.4 |  |  |  |  |  | 
ACGACGCAUAGUGAUACCAGCAUUAUAUGAGUGAUGUUCUACCUAAAAUGGUAAUAAUGAUGCCCUUGGCAGCACUAUGCGUCAG [KL-SSTheoB2] | 400 | 453 | 461 | 638 | 283 |  |  |  |  |  | 
GGGCGUGGCGCGGCCGCCACUGGGCCUGGGUGCUCGCUGAGUGAUGUUCGUCGGCGGUUGGGUCGUAGGACCGGGUGCUGGUUGG [BDazzled - #9 SS Tryptophan B] | 771 | 347 | 607 | 447 | 575 |  |  |  |  |  | 
CCCAAGGGCCUACCGGUAUGAUGGACGGAUACCAGAGGCGAAAGCCUCCCUUGGCAGCCGGGUGUAGUGAUGUUACUCCGGUAGU | 75.1 | 65.8 | 75 | 78.9 | 72 |  |  |  |  |  | 
AAAAUAAGCCAGUGAUGUUGGUGUCCAGAUACCAGCGACGAAAGUCGCCCUUGGCAGCUGUGGACGUACAAAAUAAGUACGUCCU | 1030 | 760 | 1140 | 957 | 1120 |  |  |  |  |  | 
GAUACCACGUUAGAUACCAGCUUCGUUGACUUGGGUAGUAGUCGAACUUCAGUGAUGUUGAGCCCUUGGCAGCUACAGAUGUGCG [theeternabot_exclusion_KL_Theo_B_38] | 657 | 311 | 654 | 588 | 624 |  |  |  |  |  | 
UUCUUGAUGGAAACAUCGAGAAUUACUGAUACCAGUAUCGAUAGAUACCCUUGGCAGCAGAAUCAGUAAUAACGAGUGAUGUUCG [Ex Theophylline A K4 4] | 313 | 254 | 304 | 321 | 243 |  |  |  |  |  | 
CGAAGACUUAUGGAUACCAGCCUAGCAUCAGGUGGUUCAGAGGCAUGCAGUGAUGUUGCAGGCCCUUGGCAGCCAUGGUACUAGA [Xelebi] | 76 | 71.3 | 70 | 79.8 | 79.7 |  |  |  |  |  | 
AGUGAUGUUGAGUUAUGUUAGUGAAGUGAUCGAGGACCGGUACGGCCGCCACUCGAGUGAUGAGUGAGUGAUGUUUGUUUAGUGA [bvbmullin] | 639 | 487 | 857 | 692 | 404 |  |  |  |  |  | 
GUACACUCUCGAGUGAUGUUCGGUAAUAGAGAGGAUAUCGCUUUUGCGAGAAGGCUCUGAAUGAGGAAACUCGUUCUGUGUGUAC [FMN A 20] | 906 | 686 | 1160 | 858 | 894 |  |  |  |  |  | 
ACGUCUCGUAAACUCGUGGUUUCGAUCGAUACCAGUAGCGAGAGUUACCCUUGGCAGCGACAUGAGUGAUGUUCAUGUACGAAGA [KL-XTheoA2] | 99.3 | 88.5 | 93.1 | 89.8 | 90.3 |  |  |  |  |  | 
GCCGUAGAUGGAAGGAGCGUGGUAGACUGUUGAAGUGAUGUUUCAACUCAUUAAGCCCAACCACAGGUAGGUCGCCAUCUACGGC | 133 | 107 | 107 | 112 | 120 |  |  |  |  |  | 
GGAUAGGAUAGAGGAUAUGGUUUAUGCAGGAAUAACUUAUCGUGUAAAUCCAUAGGGAGUGAUGUUCCAGAAGGCUGUCCUAUCG [MatMod 13 - Jieux - Exclusion - FMN B] | 408 | 202 | 228 | 250 | 170 |  |  |  |  |  | 
UUCCGGGCCGAAGGAUAUUGGAGUGAUGUUUCAAGACGUUCGUCCCAGCCCAUAGUAACUAUCGCCCAAGAAGGUCGUAUUGAAU [theeternabot_exclusion_KL_FMN_B_13] | 227 | 177 | 243 | 189 | 157 |  |  |  |  |  | 
UUUAACGAGUGAUGUUCGAAGAGUAAUGGUGAGGAUAUCGAUUUUUCGAGAAGGCACCUCGAAGUGAUACGAAAGUAUCGCUUCG [FMN A 5] | 171 | 266 | 266 | 269 | 181 |  |  |  |  |  | 
ACUGUACCGGGAAGGAGCGUGAAUGAGAAUGGAUAUAGUGAUGUUAUGUAUACGAACGAAUCGCAGGUAGGUCGCCCGGAUCCCU [SSArgB.aC] | 617 | 322 | 398 | 851 | 553 |  |  |  |  |  | 
CGCAGUGAUGUUGCGAGUAGAUACAGGGAAGGAGCGCGGUAGUACGCAGGUAGGUCGCCCACGCAGUGAUGUUGCGUCAUAGGGU [Exclusion Arginine A GF6] | 103 | 93.1 | 91 | 98.6 | 95.7 |  |  |  |  |  | 

Sequence | apparent KD of K4 kissing-loop reporter ([1]; input ligand: FMN 200 uM) [nM] | apparent KD of K4 kissing-loop reporter ([1]; input ligand: arginine 13.2 mM) [nM] | apparent KD of K4 kissing-loop reporter ([1]; input ligand: none) [nM] | apparent KD of K4 kissing-loop reporter [1, 2] [nM] | apparent KD of K4 kissing-loop reporter [1, 3] [nM] | apparent KD of MS2 coat protein (MS2 coat protein; [4]) [nM] | apparent KD of MS2 coat protein (MS2 coat protein; input ligand: FMN 200 uM) [nM] | apparent KD of MS2 coat protein (MS2 coat protein; input ligand: microRNA oligo, concentration not stated) [nM] | apparent KD of MS2 coat protein (MS2 coat protein; input ligand: none) [nM] | apparent KD of MS2 coat protein (MS2 coat protein; [5]) [nM] | apparent KD of MS2 coat protein (MS2 coat protein; [6]) [nM]
AGUUCUUGCCGAAGGAGCGAGGCAGAGUGAUGUUCUGCAGAGGUCGAAAGACCUCAACUGCCUCAGGUAGGUCGCGGCAUGAACA [Omei KL Arginine B Exc A v6] | 291 | 298 | 563 | 469 | 476 |  |  |  |  |  | 
UGACUGGACUGAAGGAGCGCGAAACUCCUAGUGAUGUUAGGAAUACGAGACAAAGUCUCGACGCAGGUAGGUCGCAGUCUAGUCU [ArgBS 16 #SwitchBubble #StaticStem] | 115 | 94.5 | 113 | 110 | 100 |  |  |  |  |  | 
UGUACCGAGUCAGGAUAUGGCCGGAAACGGAAUAACCAGUGAUGUUGGAAUAAAUGGCGAAAGCCUCCAGAAGGGACUUGGUACU [FmnBS 18 #SwitchBubble #StaticStem #DoubleMagnetSystem] | 158 | 213 | 211 | 212 | 185 |  |  |  |  |  | 
ACGAAAUGCGACUCCUAGUUACACCGGGAAGGAGCGCGGAUAACCGCAGGUAGGUCGCCCGGAAGCCGGACCAGUGAUGUUGGUC [Exclusion Arginine A Gf 27] | 240 | 273 | 182 | 165 | 217 |  |  |  |  |  | 
CGCUGGAGUGAUGUUCCAGCUUCUACGGAUACCAGCCACGCCAGCGGCCCUUGGCAGCCGCAAAUUGCAGUGAUGUUGUGAUGCC [Same State Theophylline A GF 4] | 314 | 278 | 312 | 312 | 283 |  |  |  |  |  | 
AAAAUAAUCCAGUGAUGUUGGUAUACAGAUACCAGCGACGAAAGUCGCCCUUGGCAGCUGUGGACGUACAAAAUAAGUACGUCCU | 934 | 972 | 1210 | 592 | 813 |  |  |  |  |  | 
CUCGAGUGAUGUUCGACGCGUCCGUACGAUACCAGCGUAGACCGUCGCCCUUGGCAGCGUGAUGCAGCCCGAAAGUCCGGUUCCU [theeternabot_sameState_KL_Theo_A_26] | 1160 | 833 | 1430 | 1120 | 1070 |  |  |  |  |  | 
UGAUUGAACUGAAGGAGCGGCAAGAGAGAAGGAAAUAUAGUGAUGUUAUAUAAGAGAGAGAGCCAGGUAGGUCGCAGAGGGAGGA [ExArgB.D] | 198 | 113 | 159 | 134 | 151 |  |  |  |  |  | 
UGAUUGGCAAAAGUAGUGAUGUUACGAAUAUAGGAUAUUAGAGGAAUAAGAAGGAUAAGGGAGAAAUAGGUAAAUUGUUGGUUGG [whbob_SS_FMNA__2th171] | 45.6 | 48.4 | 285 | 150 | 70.3 |  |  |  |  |  | 
UGAGGACAUGAGGAUCACCCAUGUAAGGAUAUGCGGAGAGAUUGGAGAGGUCGAGGAGGCAGAAGGUACAGGAC [JR_Exclu1_Sub049] (puzzle: Exclusion 1) |  |  |  |  |  | 68 |  |  |  |  | 
UUUUGACAUGAGGAUCACCCAUGUGAGGAUAUGAUGCGAUCGUCGAAAGACGAUAGCAUCAGAAGGCACAUAUG [Fiskers Ex 1 - 9] (puzzle: Exclusion 1) |  |  |  |  |  | 125 |  |  |  |  | 
CCUCCACAUGAGGAUCACCCAUGUCAGGAUAUCGUGUGUUUUUUUUCGGUCUUUCGUGCGAGAAGGGACGUCUU (puzzle: Exclusion 1) |  |  |  |  |  | 30.8 |  |  |  |  | 
ACGCAUUGCCUUUGGUAGUGCGUAACAUGAGGAUCACCCAUGUAGGAUAUGGUAGGCUUUGCUUACCAGAAGGACAUUAUAAUC [Mat - Exclusion NG 3 - Mod of JL - D8] (Eterna round: R96, puzzle: Exclusion NG 3) |  |  |  |  |  |  | 65 | 18.5 | 25.1 |  | 
AGUAGUAGUAUCCGAUCCUACAUGAGGAUCACCCAUGUAGCUAGACGUGCACGCGAUGCUCGUCGGACUACCAGAUG [salish99_TOv1_r3_043] (puzzle: Sensor v3, turn-off variant 1) |  |  |  |  |  | 46.9 |  |  |  | 48 | 63.4
UUUUACAUGCUGAGAUCCUACAUGAGGAUCACCCAUGUGGUCCGGUGACGUGAGUCACCGGACUUAGCUCGUCUUGU [salish99_S_TOV1_R5_099] (Eterna round: R97, puzzle: Sensor, turn-off variant 1) |  |  |  |  |  |  | 186 |  | 304 |  | 
AGUACUAUGCGUGCUGACAUGCGUAGUGCAGCAGGUGUUACAUGAGGAUCACCCAUGUCCUCAUUUGCUCGUCUUAA [Mat - Sensor v3 - Turn-off var 2 - D16] (puzzle: Sensor v3, turn-off variant 2) |  |  |  |  |  | 115 |  |  |  | 88 | 97.6
GCCUCACUUGAGGAUCACCCAAGUCAGGAUAUUCACUGAGCUGCAUAACAACUCGGCCGAAGAAGGGAUUCGGG [Edlacebe] (Eterna round: R97, puzzle: Exclusion 1) |  |  |  |  |  |  | 41.3 |  | 84.9 |  | 
GGAUCGAGUGUGAGGAUAUACCUAUGGAUACAUAGGUAGAAGGCACAUGAGGAUCACCCAUGUUCCAACGGUCC [Eli bmx4 4.11] (Eterna round: R97, puzzle: Brourd's mod of Exclusion 4) |  |  |  |  |  |  | 817 |  | 108 |  | 
AAUAACAGAGGAUAUACUGUUUUAUGUGUUUAUUAUUUUGAACAUGAGGAUCACCCAUGUAGAAGGCUGAAUGA [JMF 63] (puzzle: Exclusion 2) |  |  |  |  |  | 27.6 |  |  |  |  | 
